What was measured:
[1] = molecular target: muscarinic acetylcholine M3 receptor (M3R), full length, expressed in CHO cells (human) (UniProt P20309); assay: cell-based or functional assay
[2] = molecular target: Gβ5-RGS7^249-469 complex (bovine) (UniProt O46470); assay: GST pull-down from COS-7 lysate, western blot
[3] = molecular target: full-length RGS7-Gβ5 complex (recombinant, co-expressed in cells) (bovine) (UniProt O46470); assay: GST pull-down from COS-7 lysate, western blot
[4] = molecular target: native RGS7-Gβ5 complex from mouse brain extract (mouse) (UniProt P62881); assay: GST pull-down from mouse brain extract, western blot
[5] = molecular target: T1, GST (UniProt P08515 1-218 = GST); assay: GST pull-down from CHO cell lysate
T1 construct: Negative control in pull-down and FRET assays; also called GST alone; immobilized GST
T1 sequence (P08515 whole entry): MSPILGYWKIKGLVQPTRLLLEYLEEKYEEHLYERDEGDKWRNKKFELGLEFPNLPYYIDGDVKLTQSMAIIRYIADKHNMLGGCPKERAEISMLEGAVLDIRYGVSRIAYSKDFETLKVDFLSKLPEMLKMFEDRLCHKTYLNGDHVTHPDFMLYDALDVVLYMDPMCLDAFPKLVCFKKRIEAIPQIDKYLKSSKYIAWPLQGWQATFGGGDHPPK

[6] = molecular target: T2, native RGS7-Gβ5 complex from mouse brain extract (mouse, UniProt P62881 1-353; O54829 1-469, limits assumed); assay: GST pull-down from mouse brain extract, western blot with anti-RGS7 and anti-Gβ5
T2 construct: Native complex in a cholate extract of brain membranes; may also carry R7BP; also called native Gβ5-RGS7; Gβ5-RGS complexes (brain)
T2 sequence (looked up) 1: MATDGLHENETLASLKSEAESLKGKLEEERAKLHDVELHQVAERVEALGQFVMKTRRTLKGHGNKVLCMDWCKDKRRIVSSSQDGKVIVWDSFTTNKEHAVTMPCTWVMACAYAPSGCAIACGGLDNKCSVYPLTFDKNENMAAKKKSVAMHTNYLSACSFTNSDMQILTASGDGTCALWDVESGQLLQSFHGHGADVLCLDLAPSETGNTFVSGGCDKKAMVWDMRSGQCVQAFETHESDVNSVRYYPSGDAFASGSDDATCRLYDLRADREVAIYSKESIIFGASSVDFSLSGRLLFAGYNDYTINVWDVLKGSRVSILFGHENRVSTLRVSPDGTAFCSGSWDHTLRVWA
T2 sequence (looked up) 2: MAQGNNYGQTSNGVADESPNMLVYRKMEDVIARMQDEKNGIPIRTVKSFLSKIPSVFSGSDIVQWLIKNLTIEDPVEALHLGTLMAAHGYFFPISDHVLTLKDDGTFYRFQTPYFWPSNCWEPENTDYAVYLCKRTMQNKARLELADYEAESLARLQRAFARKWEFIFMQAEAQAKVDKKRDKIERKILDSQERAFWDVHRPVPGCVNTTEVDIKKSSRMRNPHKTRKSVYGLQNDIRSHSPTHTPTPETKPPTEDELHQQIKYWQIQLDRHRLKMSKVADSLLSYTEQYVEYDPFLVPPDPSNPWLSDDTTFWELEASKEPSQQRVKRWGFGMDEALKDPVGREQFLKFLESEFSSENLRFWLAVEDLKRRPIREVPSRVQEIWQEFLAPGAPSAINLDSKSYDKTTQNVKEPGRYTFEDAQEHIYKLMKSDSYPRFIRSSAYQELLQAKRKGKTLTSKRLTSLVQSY

[7] = molecular target: T3, Gβ5-RGS7 dimer (CFP-Gβ5/YFP-RGS7) (UniProt O14775+O46470); assay: FRET between CFP-Gβ5 and YFP-RGS7 in COS-7 cell lysates; assay type: binding, bovine; conditions: GST-R7DEP added to COS-7 lysate; GST alone had no effect
T3 construct: YFP fusion of full-length RGS7 (YFP-RGS7) and CFP-Gβ5; expressed in transfected cells; host or cells: COS-7 (transient; lysate measured)
T3 sequence (O14775 1-353 isoform O14775-2): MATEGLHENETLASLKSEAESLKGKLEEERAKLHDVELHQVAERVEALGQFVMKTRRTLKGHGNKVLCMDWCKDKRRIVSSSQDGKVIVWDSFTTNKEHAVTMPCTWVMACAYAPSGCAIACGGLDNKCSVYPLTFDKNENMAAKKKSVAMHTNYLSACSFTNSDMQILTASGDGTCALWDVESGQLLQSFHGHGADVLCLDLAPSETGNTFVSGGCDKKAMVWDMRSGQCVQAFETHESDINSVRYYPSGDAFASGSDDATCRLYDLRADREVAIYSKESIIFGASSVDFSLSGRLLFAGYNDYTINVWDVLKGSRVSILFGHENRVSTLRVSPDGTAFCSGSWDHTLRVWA
T3 sequence (O46470 1-469): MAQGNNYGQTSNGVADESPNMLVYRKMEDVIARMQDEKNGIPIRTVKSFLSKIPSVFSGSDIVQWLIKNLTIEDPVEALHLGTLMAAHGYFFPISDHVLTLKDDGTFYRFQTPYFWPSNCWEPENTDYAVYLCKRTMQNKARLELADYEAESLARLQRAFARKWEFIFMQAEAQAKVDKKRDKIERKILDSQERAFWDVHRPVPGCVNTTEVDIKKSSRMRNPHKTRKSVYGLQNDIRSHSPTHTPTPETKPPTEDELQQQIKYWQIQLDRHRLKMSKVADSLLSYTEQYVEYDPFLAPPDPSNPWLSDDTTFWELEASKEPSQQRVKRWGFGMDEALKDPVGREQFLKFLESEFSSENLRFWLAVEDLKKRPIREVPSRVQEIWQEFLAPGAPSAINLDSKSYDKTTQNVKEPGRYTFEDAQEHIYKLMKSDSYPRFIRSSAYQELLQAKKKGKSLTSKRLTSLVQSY
From the text: To measure FRET, COS-7 cells were transiently transfected with plasmids encoding YFP-RGS7 and CFP-Gβ5. Control cells were co-transfected with YFP-RGS7 together with untagged Gβ5, and CFP-Gβ5 together with untagged RGS7. The lysates of these cells were subjected to spectroscopic analysis, as described in Example 1. Shown are the resulting FRET spectra obtained after subtraction of the YFP background fluorescence during the CFP excitation and CFP “bleed-through” into the YFP emission channel. A. Right panel: GST R7-DEP (black symbols) or buffer (open symbols) was added to the lysate prior to recording of the spectra. […]
To permit the association of exogenously added DEP domain with Gβ5, the intra-molecular interaction between the intrinsic DEP and Gβ5 must be dynamic and have relatively low affinity. To investigate this hypothesis, a protein-protein binding assay based on fluorescence resonance energy transfer (FRET) was devised. […]
FRET between CFP— and YFP-tagged proteins was determined on a photon counting spectrofluorometer (PTI, Inc.) (28). Briefly, the cell lysates were placed in a 4 ml quartz cuvette, and the spectra were recorded at room temperature with continuous mixing of the lysate with a magnetic stirrer. CFP was excited at 433 nm (2-4 nm slit width, depending on the intensity of fluorescence signal) and the emission spectra were obtained between 465 and 555 nm. […]

Sequence of muscarinic acetylcholine M3 receptor (M3R), full length, expressed in CHO cells (human) (P20309 whole entry): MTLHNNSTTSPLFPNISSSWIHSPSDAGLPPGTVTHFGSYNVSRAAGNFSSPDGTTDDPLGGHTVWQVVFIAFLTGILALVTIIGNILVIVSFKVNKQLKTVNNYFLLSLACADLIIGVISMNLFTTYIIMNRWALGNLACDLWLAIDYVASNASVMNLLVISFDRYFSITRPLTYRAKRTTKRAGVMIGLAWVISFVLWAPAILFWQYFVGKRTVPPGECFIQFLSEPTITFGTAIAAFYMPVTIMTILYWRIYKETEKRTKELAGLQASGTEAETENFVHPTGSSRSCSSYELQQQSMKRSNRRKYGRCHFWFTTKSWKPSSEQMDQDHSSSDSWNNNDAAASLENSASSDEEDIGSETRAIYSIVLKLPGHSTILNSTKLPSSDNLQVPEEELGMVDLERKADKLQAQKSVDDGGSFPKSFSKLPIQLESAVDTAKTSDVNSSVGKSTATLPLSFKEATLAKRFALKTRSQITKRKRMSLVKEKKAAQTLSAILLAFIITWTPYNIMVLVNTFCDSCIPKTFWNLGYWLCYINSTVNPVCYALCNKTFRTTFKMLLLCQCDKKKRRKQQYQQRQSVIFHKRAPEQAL

A reduction of the amplitude of carbachol-induced Ca^2+ transients in CHO-R7BP cells [1] of over 50% was found for “full-length RGS7 ED/SG mutant (RGS7^ED/SG, E73S/D74G) co-expressed with Gβ5 (from UniProt O46470 1-469)” in this work.

A fold reduction in the amount of Gβ5 pulled down relative to the wild-type DEP domain [2] of over 10 fold, a fold reduction in the amount of Gβ5 pulled down relative to the wild-type DEP domain [3] of over 10 fold and a fold reduction in the amount of Gβ5 pulled down relative to the wild-type DEP domain [4] of over 10 fold were found for “GST-R7DEP ED/SG mutant (E73S/D74G) (from UniProt O46470 34-124)” in this work.

B1: YFP-DEP (amino acids 1-124 of full-length bovine RGS7 fused to the C-terminus of YFP) (other, UniProt O46470 1-124, looked up)
chain: MAQGNNYGQTSNGVADESPNMLVYRKMEDVIARMQDEKNGIPIRTVKSFLSKIPSVFSGSDIVQWLIKNLTIEDPVEALHLGTLMAAHGYFFPISDHVLTLKDDGTFYRFQTPYFWPSNCWEPE
notes: range 1-124; also called DEP domain; DEP domain of RGS7; not shown: yellow fluorescent protein (YFP) of the pEYFPC1 vector
B1: no binding [5].

B2: GST-R9DEP (GST fusion of the putative DEP domain of RGS9, amino acids 20-117 of bovine RGS9) (other, UniProt O46469 20-117, looked up)
chain: IEALVKDMQDPDTGVRVQNQKVKVVSIPHAMTGSDVLQWISQRLWISGLEAQNLGNFIVKYGYIYPLQDPRNLTLKPDSSLYRFQTPYFWPTQQWPAE
notes: range 20-117; not shown: glutathione S-transferase (GST) tag of the pGEX-KG vector
B2: no binding [6].

B3: GST-R7DEP: GST fusion construct containing the amino acids 34-124 of bovine RGS7 (protein)
chain: MQDEKNGIPIRTVKSFLSKIPSVFSGSDIVQWLIKNLTIEDPVEALHLGTLMAAHGYFFPISDHVLTLKDDGTFYRFQTPYFWPSNCWEPE
modifications: left off: a dimerising Fc or GST
notes: GST fusion construct containing the amino acids 34-124 of bovine RGS7
B3 was tested, and the “FRET reduction, of the total FRET signal” value [7] was 15-20%.

From US20100183584A1, “CONFORMATION AND ACTIVITY OF GBETA5 COMPLEXES” (University Of Miami, priority 2007, published 2010)
